From patent publication US20130058911

B1: recombinant malate dehydrogenase (MDH) of Bacillus subtilis with C-terminal 6x His-tag (protein)
chain: MGNTRKKVSVIGAGFTGATTAFLIAQKELADVVLVDIPQLENPTKGKALDMLEASPVQGFDAKITGTSNYEDTAGSDIVVITAGIARKPGMSRDDLVSTNEKIMRSVTQEIVKYSPDSIIVVLTNPVDAMTYAVYKESGFPKERVIGQSGVLDTARFRTFVAEELNLSVKDVTGFVLGGHGDDMVPLVRYSYAGGIPLETLIPKERIDAIVERTRKGGGEIVNLLGNGSAYYAPAASLTEMVEAILKDQRRVLPTIAYLEGEYGYEGIYLGVPTIVGGNGLEQIIELELTDYERAQLNKSVESVKNVMKVLSHHHHHH
B2: recombinant dihydrolipoyl dehydrogenase (DLD) with His tag (protein)
chain: MVVGDFPIETDTLVIGAGPGGYVAAIRAAQLGQKVTVVEKATLGGVCLNVGCIPSKALINAGHRYENAKHSDDMGITAENVTVDFTKVQEWKASVVNKLTGGVAGLLKGNKVDVVKGEAYFVDSNSVRVMDENSAQTYTFKNAIIATGSRPIELPNFKYSERVLNSTGALALKEIPKKLVVIGGGYIGTELGTAYANFGTELVILEGGDEILPGFEKQMSSLVTRRLKKKGNVEIHTNAMAKGVEERPDGVTVTFEVKGEEKTVDADYVLITVGRRPNTDELGLEQVGIEMTDRGIVKTDKQCRTNVPNIYAIGDIIEGPPLAHKASYEGKIAAEAIAGEPAEIDYLGIPAVVFSEPELASVGYTEAQAKEEGLDIVAAKFPFAANGRALSLNETDGFMKLITRKEDGLVIGAQIAGASASDMISELSLAIEGGMTAEDIAMTIHAHPTLGEITMEAAEVAIGSPIHIVKHHHHHH
B3: recombinant dihydrolipoyl dehydrogenase (DLD) without His tag (protein)
chain: MVVGDFPIETDTLVIGAGPGGYVAAIRAAQLGQKVTVVEKATLGGVCLNVGCIPSKALINAGHRYENAKHSDDMGITAENVTVDFTKVQEWKASVVNKLTGGVAGLLKGNKVDVVKGEAYFVDSNSVRVMDENSAQTYTFKNAIIATGSRPIELPNFKYSERVLNSTGALALKEIPKKLVVIGGGYIGTELGTAYANFGTELVILEGGDEILPGFEKQMSSLVTRRLKKKGNVEIHTNAMAKGVEERPDGVTVTFEVKGEEKTVDADYVLITVGRRPNTDELGLEQVGIEMTDRGIVKTDKQCRTNVPNIYAIGDIIEGPPLAHKASYEGKIAAEAIAGEPAEIDYLGIPAVVFSEPELASVGYTEAQAKEEGLDIVAAKFPFAANGRALSLNETDGFMKLITRKEDGLVIGAQIAGASASDMISELSLAIEGGMTAEDIAMTIHAHPTLGEITMEAAEVAIGSPIHIVK
B4: recombinant putative NAD(P)H nitroreductase (yodC) of Bacillus subtilis with C-terminal 6x His-tag (protein)
chain: MTNTLDVLKARASVKEYDTNAPISKEELTELLDLATKAPSAWNLQHWHFTVFHSDESKAELLPVAYNQKQIVESSAVVAILGDLKANENGEEVYAELASQGYITDEIKQTLLGQINGAYQSEQFARDSAFLNASLAAMQLMIAAKAKGYDTCAIGGFNKEQFQKQFDISERYVPVMLISIGKAVKPAHQSNRLPLSKVSTWLHHHHHH

Target: metmyoglobin
Sequence (P68082 2-154): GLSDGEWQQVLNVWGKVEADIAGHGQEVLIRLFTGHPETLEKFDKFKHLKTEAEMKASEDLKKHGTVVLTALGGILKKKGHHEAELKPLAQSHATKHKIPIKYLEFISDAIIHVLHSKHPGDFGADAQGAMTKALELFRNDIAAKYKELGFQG

Protein | metmyoglobin reduction activity (change in A406 with NADH) | reactivity for myoglobin (relative to DLD)
B1 | the activity of MDH was not found | –
B2 | Both of them showed 10 times or more higher metmyoglobin reduction activity than the empty vector | –
B3 | Both of them showed 10 times or more higher metmyoglobin reduction activity than the empty vector | –
B4 | the activity of yodC was confirmed | In comparison with DLD, yodC showed about 2.6 times and 22 times higher reactivity for potassium ferricyanide and myoglobin, respectively
